Target: the molecule itself
Experiment: oligomer pelleting by centrifugation with UV absorbance of the supernatant

B1: RAGE VC1 (tandem V and C1 domains of the receptor for advanced glycation end products) (domain or fragment, human)
chain: AQNITARIGEPLVLKCKGAPKKPPQRLEWKLNTGRTEAWKVLSPQGGGPWDSVARVLPNGSLFLPAVGIQDEGIFRCQAMNRNGKETKSNYRVRVYQIPGKPEIVDSASELTAGVPNKVGTCVSEGSYPAGTLSWHLDGKPLVPNEKGVSVKEQTRRHPETGLFTLQSELMVTPARGGDPRPTFSCSFSPGLPRHRALRTAPIQPRVWEPVPLEEVQL
In the case of B1, the Kd is reported as 3.8 ± 1.3 µM.

— paper PMC4250094 (Structure (London, England : 1993), 2010)
